# Measured values: the supplement of paper PMC12042874
# ± gives the uncertainty stated by the source.
# Assay: amyloid nucleation score (Sup35N fusion, yeast selection) (log enrichment); library NNK3; higher = more nucleation; inactive = no reads after selection
# In short: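 DiMSum was used to calculate nucleation scores as log enrichment of output over input reads, centred on the mode score of non-aggregating sequences. Sequences with fewer than 100 input reads were not scored. Input and output came from Illumina sequencing of plasmid inserts in psi-negative yeast expressing peptides of 20 random codons fused to Sup35N, induced 24 hours with 100 μM copper sulfate and then grown 7 days at 30°C on medium lacking adenine and uracil.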
row,Substance,amyloid nucleation score
1,SYYAHL,inactive
2,SYYMTKLVFLCPLW,inactive
3,SYYTYVFTIVTPRKTNLWSG,0.64 ± 0.28
4,TAAYSLFIEVSCSQSTN,inactive
5,TADRQGYSFEC,inactive
6,TAEKSGVGLFGGTSVFLFES,inactive
7,TAFTYYASVSFVSRL,1.38 ± 0.093
8,TAKTRC,-0.272 ± 0.96
9,TARYMLSKYVTLCNDVSI,0.984 ± 0.12
10,TASWVLFVAVVCICLTLFSY,0.85 ± 0.3
11,TAWGMLGGPE,inactive
12,TAYFFSVARVMVDLTTALLA,0.161 ± 0.33
13,TCECDGFLFFRRCFNWG,inactive
14,TCEWQRTCNPVGMSYKWSRG,inactive
15,TCGINYRGYEDPRPCRGTEI,inactive
16,TCGVVSPRGMSNMLCLGGWS,inactive
17,TCHLSKHEISYQLGDTNGHC,-0.516 ± 0.9
18,TCIGPGRFFFMMFYV,inactive
19,TCLLRQCWNNVMS,inactive
20,TCLWFLFIKRSSRDSEIWS,0.209 ± 0.53
21,TCRPFIT,inactive
22,TCSTGAGNFCVCDFRLVRMR,inactive
23,TDHNDLMKLFATRCSPNPCL,inactive
24,TDILLYMIFVLHVVSNGVLG,inactive
25,TDVIYVDGPLA,inactive
26,TDVVSSVILRYSFFGHVNEF,inactive
27,TDVYHQNAQYHRVYNLQGRV,inactive

row,Substance,amyloid nucleation score
1,TENISFECYMEIY,inactive
2,TENISVCGYYYRMIALDMFW,inactive
3,TEYTILLASRNLFPTR,0.598 ± 0.25
4,TFDPKL,inactive
5,TFLLCVVDGCCICRRGSCAS,2.2 ± 0.096
6,TFLNRIQWSKWILN,inactive
7,TFRTTGM,inactive
8,TFSNNYPFSRWGCFSVLAV,inactive
9,TFVKSVLSYVLGLELSLRGL,inactive
10,TFVVSVMHKCAW,1.18 ± 0.11
11,TGDGTWS,inactive
12,TGILRNFSCFSFWFWVIRIT,1.46 ± 0.097
13,TGSDAYSMRMPRQPPISFVV,inactive
14,TGVVMCLGIEMINDYIPVLN,inactive
15,TGYHGHTPFSYDQYEFHLRV,inactive
16,TGYLAMWLY,inactive
17,TGYLQLYRTADDRGLEYCIM,inactive
18,THDAVNFVLRHWAITGNTDM,inactive
19,THEHMRHC,inactive
20,THGREGYASSSSSLGPGSIS,-0.08 ± 0.44
21,THMATNLAGMYREAHGSGGI,inactive
22,THPVSCRYVSPDMSSAHYFV,inactive
23,THYEVWGLT,inactive
24,TIFECRRASFNVSVEMGR,inactive
25,TIFMWCV,1.64 ± 0.097
26,TIFSIDFIIVYT,1.81 ± 0.057
27,TIIRLIFIWAFFGSGICGRV,inactive

row,Substance,amyloid nucleation score
1,TIMCNIWLGFRT,2.01 ± 0.096
2,TINIQCALGMNQT,1.17 ± 0.11
3,TINRLLICI,-0.14 ± 0.57
4,TIQCMCFCSNRVLTIIVQLS,-0.61 ± 0.75
5,TISGLNM,inactive
6,TISIVTWDIVRSKCMRRKVL,inactive
7,TIVFCIVLGWLEFHRHFVSD,inactive
8,TIWSCMCVMWITRPSNTRRP,inactive
9,TIWSITFLGCKLELTEKCLV,0.979 ± 0.24
10,TIYNEGCVCKVYKESLGGSA,inactive
11,TKAAMPRNNYLFILY,-0.278 ± 0.71
12,TKCVLNGRRLSLCPLDNSMR,inactive
13,TKFIMKRLLVERVSCFLRSH,inactive
14,TKSMVKNLHALPSIKRGVFV,inactive
15,TKTHCFLLLSGVCVGRVLGW,inactive
16,TLDGLLRASMYSLIYWLVLM,inactive
17,TLFEMYNVTFIMKNGLQES,1.96 ± 0.062
18,TLFNLFRVKLIDEPNLAKWL,inactive
19,TLGSAEDMYRQPRIANTDSC,-0.123 ± 0.59
20,TLLIRCYPYIMLYRFAASTD,inactive
21,TLLRHVNNDGGSVSLGTMLA,inactive
22,TLLSFAHYHHLWSHLVYRSV,inactive
23,TLSLACGSYVQCSMEFLSSG,1.6 ± 0.08
24,TLSLVQQSR,inactive
25,TLTRVRTRCTKWRFICNCPM,0.254 ± 0.34
26,TLTWHNVWGCICGKFLTV,inactive
